This note sets out measurements from the nanobody polyreactivity screen of Harvey et al. (2022).

The data set is described as follows: yeast display, Sf9 membrane polyspecificity reagent, FACS + sequencing; frameworks hold sequencing errors. A digest of the protocol: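 After 36–48 hours of galactose induction, yeast (Saccharomyces cerevisiae BJ5465) displaying a synthetic nanobody library were stained at 4 °C for 1 hour with 10% biotinylated, detergent-solubilized Sf9 membrane reagent. Streptavidin microbeads enriched the stained cells before FACS sorting into low and high (top ~1%) gates on anti-HA and streptavidin fluorescence. Each clone's polyreactivity label reflects its gate of origin.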
For “QVQLVESGGGLVQAGGSLRLICAASGLTFWVYTMGWYRQAPGKERELVARITSRGASTYYADSVKGRFTISRDNAKNTVYLQMNSLKPEDTAVYYCATDRYRIYPDYDYWGQGTQVTVSS”, the “polyreactivity (PSR sort gate)” value is “high polyreactivity”.

Take “QVQLVESGGGLVQAGGSLRLICAASGLTFYVYAMGWYRQAPGKERELVAAISQRGGSTYYADSVKGRFKISRDNAKNTVYLQMNSLNPEDTAVYYCAKYTVQYAISHYDYWGQGTQVTVSS”: the “polyreactivity (PSR sort gate)” value was “high polyreactivity”.

On to “QVQLVESGGGLVQAGGSLRLICAASGNTFKDYTMVWYIQAPRKERDLVASINSGGSTNYADSVKGRFTISRDNAKNTVYLQMNSLKPEDTAVYYCAKRAWSDYNPIDYWGQGTQVSVSS”, for which the “polyreactivity (PSR sort gate)” value is reported as “low polyreactivity”.

Turning to “QVQLVESGGGLVQAGGSLRLICAASGNTFNVYAMVWYRHAPGKERELVAAITLSGGSTYYADSVKGRFTISRDNAKNTVYLQMNSLKPEDTAVYYCNAEDDGTDYDYWGQGTQVTVSS”, the “polyreactivity (PSR sort gate)” value is listed as “low polyreactivity”.

Take “QVQLVESGGGLVQAGGSLRLICAASGNTFTGYVMGWNRQAPGKEREYVAAIRSGGSTYYADSVKGRFTISRDNAKNTVYLQMNSLKPEDTSVYYCAKCVTPYRTSAYGYWGQGTQVTVSS”: the “polyreactivity (PSR sort gate)” value is on record as “high polyreactivity”.

For the sequence “QVQLVESGGGLVQAGGSLRLICAASGRIFATYTMGWYRQAPGKERELVAAISRNGGSTYYADSVKGRFTISRDYAKNTVYLQMNSLKTEDTAVYYCNAERRDDRGFDYWGQGTQVTVSS”, the “polyreactivity (PSR sort gate)” value is “low polyreactivity”.

For “QVQLVESGGGLVQAGGSLRLICAASGRIFDKNAMGWYRQAPGKERELVAAINRSGGRTYYADSVKGRFTISRDNAKNTVYLQMNSLKPEDTAVYYCAADTQGSRYDYWGQGTQVTVSS”, the “polyreactivity (PSR sort gate)” value is “high polyreactivity”.

For “QVQLVESGGGLVQAGGSLRLICAASGRIFDPYAMGWYRQAPGKERELVASISWSGGRTYYADSVKGRFTISRDNAKNTVYLQMNSLKPEDTAVYYCAARQWYRYKVRFDYWGQGTQVTVSS”, the “polyreactivity (PSR sort gate)” value is listed as “high polyreactivity”.

In the case of “QVQLVESGGGLVQAGGSLRLICAASGRIFEKYAMGWYRQEPGKERELVAAISSSGGSTYYADSVKGRFTISRDIAKNTVYLQMNSLKPDDTAVYYCAKLVVVPFYYWGQGTQVSVSS”, the “polyreactivity (PSR sort gate)” value is recorded as “high polyreactivity”.

Regarding “QVQLVESGGGLVQAGGSLRLICAASGRIFFIYAMGWYRQAPGKERELVAGINRTGGSTYYADSVKGRFTISRDNAKNSVYLHMNSLKPEDTAVYYCAAVSYYASDYRYDYWGKGTQVTVSS”, the “polyreactivity (PSR sort gate)” value is listed as “low polyreactivity”.

As for “QVQLVESGGGLVQAGGSLRLICAASGRIFGIYAMGWYRQAPGKERELVARITGGGSTNYADSVKGRFTISRDNPKNTVYLQMNSLNPEDTAVYYCAANVRRIVGNITRYDYWGQGTQVTVSS”, the “polyreactivity (PSR sort gate)” value was “low polyreactivity”.

Take “QVQLVESGGGLVQAGGSLRLICAASGRIFGRNAMGWYRQARGKERELVAGISSGGTTDYADSVKGRFTISRDNAKNTVYLQMNSLKPEDTAVYYCNVDNDDSAFYAIFVLYDYWGEGTQVTVSS”: the “polyreactivity (PSR sort gate)” value is “low polyreactivity”.

In the case of “QVQLVESGGGLVQAGGSLRLICAASGRIFHVNAMGWYRQAPGKERELVAAISTSGGRTYYADSVKGRFTISRDNAKNTVYLQMNSLKPEDTAVYYCAAVSRAPGLRYDYWGQGTQVTVSS”, the “polyreactivity (PSR sort gate)” value is on record as “high polyreactivity”.

On to “QVQLVESGGGLVQAGGSLRLICAASGRIFLYYAMGWYRQAPGKERELVADINSGGNTTYADSVKGRFTISRDNAKNTVYLQMNSLKPEDTAVYYCAADPVFDLWEFVLDYGYDYWGQGTQVTVSS”, for which the “polyreactivity (PSR sort gate)” value is on record as “low polyreactivity”.

Turning to “QVQLVESGGGLVQAGGSLRLICAASGRIFNVYAMGWYRQAPGKETELVASITSAGSTYYADSVKGRFTISRDNAKNTVYLQMNSLKPEDTAVYYCNAESYSTWSFGHRYEYDYWGQGTQVTVSS”, the “polyreactivity (PSR sort gate)” value is listed as “low polyreactivity”.

With “QVQLVESGGGLVQAGGSLRLICAASGRIFPDYDMGWYRQAPGKERELVAAITQRGGSTYADSVKGRFTISRDNAKNTVYLQMNSLKPEDTAVYYCNARWQRPYDYWGQGTQVTVSS”, the “polyreactivity (PSR sort gate)” value was “low polyreactivity”.

For the sequence “QVQLVESGGGLVQAGGSLRLICAASGRIFRGNAMGWYRQAPGKERELVAAISSGGSTNYADSVKGRFTISRDNEKNTVYLQMNSLKPEDTAVYYCAASRVRSYFGRYYWGQGTQVTVSS”, the “polyreactivity (PSR sort gate)” value is on record as “high polyreactivity”.

“QVQLVESGGGLVQAGGSLRLICAASGRIFRIYAIGWYRQAPGKERELVARITYSGGSTYYADSVKGRFTISRDNAKNSVYLLMNSLKPEETAVYYCAADWLGYQYGYWGQGTQVTVSS”: the “polyreactivity (PSR sort gate)” value is given as “low polyreactivity”.

Consider “QVQLVESGGGLVQAGGSLRLICAASGRIFRPYAMGWYRQAPGKEREFVATIRFTTGRTYYADSVKGRFTISRDNAKNTVYLQMNSLKPEDTAVYYCAADFAFVNYAKISYTTHDYWGQGTQVTVSS”, for which the “polyreactivity (PSR sort gate)” value is on record as “high polyreactivity”.

With “QVQLVESGGGLVQAGGSLRLICAASGRIFSTYAMGWYRQAPGKERELVAAINKIGGSTYYADSVKGRFTISRDNAKNTVYLQMNSLKPEDTAVYYCAADAPYYPVRRYYYWGQGTQVTVSS”, the “polyreactivity (PSR sort gate)” value is listed as “low polyreactivity”.

Take “QVQLVESGGGLVQAGGSLRLICAASGRIFVINAMGWYRQAPGKERELVAAITGGGSTNYADSVKGRFTISRDNAKNPVYLQMNSLKPEDTAVYYCAADYRPVRRFYYSRYDDWGQGTQVTVSS”: the “polyreactivity (PSR sort gate)” value was “low polyreactivity”.

Turning to “QVQLVESGGGLVQAGGSLRLICAASGRIFYYNAMGWYRQAPGKERELVAVITRSGGRTFYADSVKGRFTISRDNAKNTGYLQMNSLKPEDTAVYYCAARYRYYPVTTRGYYWGQGTQVTVSS”, the “polyreactivity (PSR sort gate)” value was “high polyreactivity”.

In the case of “QVQLVESGGGLVQAGGSLRLICAASGRIIGKNAMGWYRQARGKERELVAAIRYNGGRTYYADSVKGRFTISRDNAKNTVYLQMNSLKPEDTAVYYCAARWRSWRYKYDYWGQGTQVTVSS”, the “polyreactivity (PSR sort gate)” value was “high polyreactivity”.

For the sequence “QVQLVESGGGLVQAGGSLRLICAASGRILDIYALGWYRQAPGKERELVASISGSGSSTYYADSVKGRVTISRDNAKNTVYLQMNSLKPEDSAVYYCNAARSQGYEYATYGYWGQGSQVTVSS”, the “polyreactivity (PSR sort gate)” value is “low polyreactivity”.

As for “QVQLVESGGGLVQAGGSLRLICAASGRILPLYAMGWYRQAPGKERELVADITGSDGSTYYADSVKGRFTISRDNAKNTVYLQMNSLKPEDTAVYYCATDAIGRTPSDPWDYYYWGQGTQVTVSS”, the “polyreactivity (PSR sort gate)” value was “low polyreactivity”.

With “QVQLVESGGGLVQAGGSLRLICAASGRIYIKNAMGWYRQAPGKERELVAAISSGSSTYYADSVKGRFTISRDNAKNSVYLQMYSLKPEDTAVYYCAAPDYRNGVRYPLDYWGQGTQVTVSS”, the “polyreactivity (PSR sort gate)” value was “low polyreactivity”.

Consider “QVQLVESGGGLVQAGGSLRLICAASGRIYWTYAMGWYRQAPGKERDLVAAISSGGSTNYADSVKGRFTISRDNAKNTVYLQMNSLKPEDTAVYYCAADRWYREYDYWGQGTQVTVSS”, for which the “polyreactivity (PSR sort gate)” value was “low polyreactivity”.

“QVQLVESGGGLVQAGGSLRLICAASGRTFEDNAMGWYRQAPGKERELVAAISSDGSRNYADSVKGRFTISRDNAKNTVYLQMNSLKPEDTAVYYCNATVYWPYDWGTSDYWGQGTQVTVSS”: the “polyreactivity (PSR sort gate)” value is recorded as “low polyreactivity”.

On to “QVQLVESGGGLVQAGGSLRLICAASGRTFENYAMGWYRQAPGKERELVAAISKSGGSTYYADSVKGRFTISRDNAKNPVYLQMNSLKPEDTAVYYCNARPGQSGARFGYWGQGTQVTVSS”, for which the “polyreactivity (PSR sort gate)” value is “high polyreactivity”.

As to “QVQLVESGGGLVQAGGSLRLICAASGRTFGGYAMGWYRQAHGKERELVAAISDRGTSTYYADSVKGRFTISRDNAKYTVYLQMNSVKPEDTAVYYCAASSARRRMDYWGQGTQVTVSS”, the “polyreactivity (PSR sort gate)” value is reported as “high polyreactivity”.
